Experimental findings from the supplement of paper PMC9112550, “Optimization of the antimicrobial peptide Bac7 by deep mutational scanning” (BMC Biology, 2022) are described below.
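Note: peptides expressed intracellularly from a pBAD plasmid library in pooled LB shake-flask culture, induced with 0.3% L-arabinose, DNA abundance read by NGS, three biological replicates, DESeq2 with apeglm shrinkage.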

For the series, the system named is Escherichia coli TOP10. Description: shrunken log2 fold change of peptide-encoding DNA abundance (4.5 h post-induction vs induction); higher = less antimicrobial activity (less host growth inhibition). The conditions noted are these: time post-induction: 4.5 h; library: site-saturation at positions 5, 18, 19, 20.
With RRIRIRPPRLPRPRPRPYAGPRP, the “shrunken log2 fold change” value was -0.417.

On to RRIRERPPRLPRPRPRPECWPRP, for which the “shrunken log2 fold change” value turned out to be 0.447.

RRIRRRPPRLPRPRPRPTKAPRP: the “shrunken log2 fold change” value is 0.372.

As to RRIRDRPPRLPRPRPRPPWQPRP, the “shrunken log2 fold change” value amounted to 0.475.

Turning to RRIRSRPPRLPRPRPRPSLQPRP, the “shrunken log2 fold change” value was -0.606.

With RRIRKRPPRLPRPRPRPQNSPRP, the “shrunken log2 fold change” value is -0.0372.

RRIRCRPPRLPRPRPRPVDKPRP: the “shrunken log2 fold change” value was -0.184.

Regarding RRIRKRPPRLPRPRPRPIFEPRP, the “shrunken log2 fold change” value stood at 0.381.

For the sequence RRIRQRPPRLPRPRPRPCDQPRP, the “shrunken log2 fold change” value is 0.0849.

Turning to RRIRTRPPRLPRPRPRPMSVPRP, the “shrunken log2 fold change” value was -0.00965.

RRIRNRPPRLPRPRPRPVWFPRP: the “shrunken log2 fold change” value is -0.113.

Turning to RRIRPRPPRLPRPRPRPQYGPRP, the “shrunken log2 fold change” value was -0.725.

With RRIRFRPPRLPRPRPRPWSVPRP, the “shrunken log2 fold change” value was -0.0111.

Consider RRIRIRPPRLPRPRPRPFEKPRP, for which the “shrunken log2 fold change” value was -0.103.

With RRIRYRPPRLPRPRPRPSRMPRP, the “shrunken log2 fold change” value was -0.303.

With RRIRPRPPRLPRPRPRPYPHPRP, the “shrunken log2 fold change” value is -0.237.

With RRIRIRPPRLPRPRPRPVGGPRP, the “shrunken log2 fold change” value was determined as 0.0792.

Turning to RRIRMRPPRLPRPRPRPIMVPRP, the “shrunken log2 fold change” value is -0.0355.

For the sequence RRIRIRPPRLPRPRPRPAVYPRP, the “shrunken log2 fold change” value was -0.825.

For the sequence RRIRTRPPRLPRPRPRPWSQPRP, the “shrunken log2 fold change” value amounted to 0.0431.

For RRIRRRPPRLPRPRPRPNIEPRP, the “shrunken log2 fold change” value was 0.0519.

For the sequence RRIRMRPPRLPRPRPRPSWDPRP, the “shrunken log2 fold change” value is 0.709.

Consider RRIRTRPPRLPRPRPRPEQKPRP, for which the “shrunken log2 fold change” value amounted to 0.154.

Turning to RRIRCRPPRLPRPRPRPHHTPRP, the “shrunken log2 fold change” value was -1.04.

For the sequence RRIRFRPPRLPRPRPRPYYKPRP, the “shrunken log2 fold change” value was -0.207.

As for RRIRVRPPRLPRPRPRPDTTPRP, the “shrunken log2 fold change” value was -1.05.

RRIRERPPRLPRPRPRPYTYPRP: the “shrunken log2 fold change” value was -0.0595.

For the sequence RRIRYRPPRLPRPRPRPNGFPRP, the “shrunken log2 fold change” value is -0.219.

With RRIRDRPPRLPRPRPRPYYKPRP, the “shrunken log2 fold change” value was -0.195.

Regarding RRIRFRPPRLPRPRPRPPFGPRP, the “shrunken log2 fold change” value was -0.00994.

As to RRIRERPPRLPRPRPRPCISPRP, the “shrunken log2 fold change” value is -0.218.

Consider RRIRIRPPRLPRPRPRPRYRPRP, for which the “shrunken log2 fold change” value was -0.386.

As to RRIRFRPPRLPRPRPRPHLAPRP, the “shrunken log2 fold change” value was -0.0213.

As for RRIRTRPPRLPRPRPRPVQAPRP, the “shrunken log2 fold change” value is 0.0641.

As for RRIRERPPRLPRPRPRPKGSPRP, the “shrunken log2 fold change” value came out at 0.00854.

With RRIRERPPRLPRPRPRPFYWPRP, the “shrunken log2 fold change” value was -0.158.

RRIRLRPPRLPRPRPRPMSLPRP: the “shrunken log2 fold change” value was -0.0224.

With RRIRERPPRLPRPRPRPSKMPRP, the “shrunken log2 fold change” value is -0.141.

With RRIRHRPPRLPRPRPRPDMPPRP, the “shrunken log2 fold change” value came out at 0.144.

Consider RRIRFRPPRLPRPRPRPNVWPRP, for which the “shrunken log2 fold change” value came to 0.0725.

As for RRIRTRPPRLPRPRPRPHKFPRP, the “shrunken log2 fold change” value is -0.18.

In the case of RRIRGRPPRLPRPRPRPWFVPRP, the “shrunken log2 fold change” value is -0.314.

RRIRGRPPRLPRPRPRPTLVPRP: the “shrunken log2 fold change” value amounted to 1.87.

Consider RRIRIRPPRLPRPRPRPIYGPRP, for which the “shrunken log2 fold change” value was -0.000842.

Consider RRIRFRPPRLPRPRPRPFCLPRP, for which the “shrunken log2 fold change” value is -0.467.

Turning to RRIRHRPPRLPRPRPRPSNVPRP, the “shrunken log2 fold change” value was -0.00144.

As to RRIRRRPPRLPRPRPRPTRPPRP, the “shrunken log2 fold change” value is 1.02.

As to RRIRPRPPRLPRPRPRPSRTPRP, the “shrunken log2 fold change” value worked out at 0.198.

Consider RRIRARPPRLPRPRPRPNFDPRP, for which the “shrunken log2 fold change” value came to 0.281.

Take RRIRERPPRLPRPRPRPSKQPRP: the “shrunken log2 fold change” value is 0.0844.

Regarding RRIRRRPPRLPRPRPRPNWQPRP, the “shrunken log2 fold change” value worked out at 0.00842.

Turning to RRIRCRPPRLPRPRPRPMSHPRP, the “shrunken log2 fold change” value is -0.207.

For RRIRFRPPRLPRPRPRPWPEPRP, the “shrunken log2 fold change” value is 0.0713.

For the sequence RRIRGRPPRLPRPRPRPCGIPRP, the “shrunken log2 fold change” value came out at 0.206.

For RRIRYRPPRLPRPRPRPLWAPRP, the “shrunken log2 fold change” value is -0.25.

In the case of RRIRLRPPRLPRPRPRPGYTPRP, the “shrunken log2 fold change” value is -0.349.

Take RRIRIRPPRLPRPRPRPLMPPRP: the “shrunken log2 fold change” value was 1.27.

Take RRIRQRPPRLPRPRPRPWFIPRP: the “shrunken log2 fold change” value is -0.302.

Consider RRIRTRPPRLPRPRPRPPHPPRP, for which the “shrunken log2 fold change” value is 0.255.

For RRIRWRPPRLPRPRPRPMEAPRP, the “shrunken log2 fold change” value was determined as 0.0987.

Consider RRIRVRPPRLPRPRPRPWCNPRP, for which the “shrunken log2 fold change” value was determined as 3.15.

As for RRIRCRPPRLPRPRPRPKMTPRP, the “shrunken log2 fold change” value stood at 0.0216.

As for RRIRIRPPRLPRPRPRPLSIPRP, the “shrunken log2 fold change” value was -0.493.

In the case of RRIRDRPPRLPRPRPRPNIVPRP, the “shrunken log2 fold change” value is -0.0381.

As to RRIRLRPPRLPRPRPRPRTFPRP, the “shrunken log2 fold change” value is -0.0808.

For RRIRKRPPRLPRPRPRPWQIPRP, the “shrunken log2 fold change” value was 0.141.

Regarding RRIRRRPPRLPRPRPRPKTDPRP, the “shrunken log2 fold change” value came out at 0.163.

On to RRIRIRPPRLPRPRPRPGKCPRP, for which the “shrunken log2 fold change” value is -0.215.

Consider RRIRRRPPRLPRPRPRPTGGPRP, for which the “shrunken log2 fold change” value worked out at 0.296.

In the case of RRIRLRPPRLPRPRPRPWKWPRP, the “shrunken log2 fold change” value was -0.184.

As to RRIRRRPPRLPRPRPRPKEAPRP, the “shrunken log2 fold change” value was found to be 0.0205.

Consider RRIRERPPRLPRPRPRPKRNPRP, for which the “shrunken log2 fold change” value is -0.114.

On to RRIRRRPPRLPRPRPRPDLNPRP, for which the “shrunken log2 fold change” value stood at 0.16.

In the case of RRIRTRPPRLPRPRPRPLYYPRP, the “shrunken log2 fold change” value was -0.771.

As to RRIRGRPPRLPRPRPRPDYPPRP, the “shrunken log2 fold change” value worked out at 0.121.

Take RRIRDRPPRLPRPRPRPKKMPRP: the “shrunken log2 fold change” value is -0.0785.

In the case of RRIRFRPPRLPRPRPRPIPDPRP, the “shrunken log2 fold change” value is -0.215.

On to RRIRMRPPRLPRPRPRPSFTPRP, for which the “shrunken log2 fold change” value was -0.0116.

Regarding RRIRSRPPRLPRPRPRPWYPPRP, the “shrunken log2 fold change” value was -0.301.

Consider RRIRGRPPRLPRPRPRPLIIPRP, for which the “shrunken log2 fold change” value was -0.05.

Regarding RRIRWRPPRLPRPRPRPPDEPRP, the “shrunken log2 fold change” value turned out to be 0.654.

As for RRIRIRPPRLPRPRPRPRHMPRP, the “shrunken log2 fold change” value was -0.12.

As to RRIRRRPPRLPRPRPRPSSVPRP, the “shrunken log2 fold change” value came out at 0.131.

Take RRIRQRPPRLPRPRPRPFNDPRP: the “shrunken log2 fold change” value is 0.0753.

Take RRIRDRPPRLPRPRPRPWFSPRP: the “shrunken log2 fold change” value was -0.317.

As to RRIRIRPPRLPRPRPRPTEMPRP, the “shrunken log2 fold change” value is 0.112.

As to RRIRKRPPRLPRPRPRPANEPRP, the “shrunken log2 fold change” value amounted to 0.151.

Turning to RRIRDRPPRLPRPRPRPERLPRP, the “shrunken log2 fold change” value was found to be 0.659.

As to RRIRQRPPRLPRPRPRPKPQPRP, the “shrunken log2 fold change” value is -0.0342.

Turning to RRIRYRPPRLPRPRPRPRKDPRP, the “shrunken log2 fold change” value is -0.288.

In the case of RRIRNRPPRLPRPRPRPKHMPRP, the “shrunken log2 fold change” value is -0.382.

With RRIRKRPPRLPRPRPRPWRHPRP, the “shrunken log2 fold change” value worked out at 0.094.

In the case of RRIRARPPRLPRPRPRPHSYPRP, the “shrunken log2 fold change” value stood at 0.0128.

Consider RRIRNRPPRLPRPRPRPVDWPRP, for which the “shrunken log2 fold change” value turned out to be 0.218.

As to RRIRTRPPRLPRPRPRPWERPRP, the “shrunken log2 fold change” value was -0.0102.

For RRIRPRPPRLPRPRPRPICQPRP, the “shrunken log2 fold change” value was -0.0543.

On to RRIRIRPPRLPRPRPRPHYVPRP, for which the “shrunken log2 fold change” value was -0.342.

In the case of RRIRHRPPRLPRPRPRPQFRPRP, the “shrunken log2 fold change” value is -0.0324.

As for RRIRWRPPRLPRPRPRPSGKPRP, the “shrunken log2 fold change” value was -0.0778.

With RRIRWRPPRLPRPRPRPIYRPRP, the “shrunken log2 fold change” value stood at 0.0155.

As for RRIRGRPPRLPRPRPRPTLPPRP, the “shrunken log2 fold change” value amounted to 0.574.

Regarding RRIRVRPPRLPRPRPRPHVIPRP, the “shrunken log2 fold change” value is -0.0921.

As to RRIRGRPPRLPRPRPRPILTPRP, the “shrunken log2 fold change” value was determined as 0.351.

As to RRIRIRPPRLPRPRPRPLLFPRP, the “shrunken log2 fold change” value was -0.553.

On to RRIRFRPPRLPRPRPRPQFDPRP, for which the “shrunken log2 fold change” value is -0.286.

RRIRHRPPRLPRPRPRPESQPRP: the “shrunken log2 fold change” value was -0.173.

In the case of RRIRQRPPRLPRPRPRPTEIPRP, the “shrunken log2 fold change” value was -0.223.

As for RRIRYRPPRLPRPRPRPDAVPRP, the “shrunken log2 fold change” value is -0.365.

For RRIRRRPPRLPRPRPRPAWCPRP, the “shrunken log2 fold change” value turned out to be 0.568.

RRIRIRPPRLPRPRPRPKPCPRP: the “shrunken log2 fold change” value was -0.0965.

With RRIRLRPPRLPRPRPRPVFPPRP, the “shrunken log2 fold change” value was 0.263.

Regarding RRIRLRPPRLPRPRPRPCSHPRP, the “shrunken log2 fold change” value is -0.226.

As to RRIRHRPPRLPRPRPRPAKCPRP, the “shrunken log2 fold change” value is -0.0799.

Regarding RRIRARPPRLPRPRPRPECDPRP, the “shrunken log2 fold change” value came to 1.12.

For the sequence RRIRARPPRLPRPRPRPVVMPRP, the “shrunken log2 fold change” value is 0.282.

As to RRIRFRPPRLPRPRPRPLRGPRP, the “shrunken log2 fold change” value was determined as 0.607.

RRIRTRPPRLPRPRPRPLCNPRP: the “shrunken log2 fold change” value was -0.484.

For the sequence RRIRCRPPRLPRPRPRPVSGPRP, the “shrunken log2 fold change” value turned out to be 0.357.

On to RRIRHRPPRLPRPRPRPMDMPRP, for which the “shrunken log2 fold change” value is 0.0881.

Regarding RRIRSRPPRLPRPRPRPKWLPRP, the “shrunken log2 fold change” value was found to be 0.104.

In the case of RRIRNRPPRLPRPRPRPCDDPRP, the “shrunken log2 fold change” value turned out to be 0.0873.

As for RRIRMRPPRLPRPRPRPFQIPRP, the “shrunken log2 fold change” value is -0.0803.

With RRIRGRPPRLPRPRPRPNTTPRP, the “shrunken log2 fold change” value turned out to be 0.325.

For RRIRDRPPRLPRPRPRPAPRPRP, the “shrunken log2 fold change” value amounted to 1.07.

In the case of RRIRNRPPRLPRPRPRPQKWPRP, the “shrunken log2 fold change” value was -0.0202.
